Assays:
[1] = target: human IL-4 receptor alpha on cells (peripheral blood lymphocytes, primary B cells, TF-1, A549, PBMC) (human) (UniProt P24394); test: cell-based or functional assay
[2] = target: human IL-4 receptor alpha on cells (peripheral blood lymphocytes, primary B cells, TF-1, A549, PBMC) (human) (UniProt P24394); test: flow cytometry, human peripheral blood lymphocytes, 10 µg/ml
[3] = target: cynomolgus IL-4 receptor alpha on peripheral blood lymphocytes (cynomolgus); test: flow cytometry, cynomolgus peripheral blood lymphocytes, 10 µg/ml

wildtype tear lipocalin (gene product of pTLPC10) (from UniProt P31025 23-175)
% Positive for STAT-6 phosphorylation, TF-1 cells + IL-4 [1]: 72% | % Positive for STAT-6 phosphorylation, TF-1 cells + IL-13 [1]: 84% | MFI, STAT-6 phosphorylation, TF-1 cells + IL-4 [1]: 13.1 | MFI, STAT-6 phosphorylation, TF-1 cells + IL-13 [1]: 18.6 | % Positive [2]: 9% | MFI [2]: 3.2 | % Positive [3]: 5% | MFI [3]: 1.9

Reference: US20090305982A1
